Results reported in US20160009817A1 (Bayer, published 2016).

Columns and labels:
[1] = target: T1, human tissue factor pathway inhibitor (TFPI) (human, UniProt P10646 29-282, limits assumed); assay: SPR (Biacore) kinetics, human TFPI immobilised; reference gA200
T1 construct: also called Human TFPI
T1 sequence (looked up): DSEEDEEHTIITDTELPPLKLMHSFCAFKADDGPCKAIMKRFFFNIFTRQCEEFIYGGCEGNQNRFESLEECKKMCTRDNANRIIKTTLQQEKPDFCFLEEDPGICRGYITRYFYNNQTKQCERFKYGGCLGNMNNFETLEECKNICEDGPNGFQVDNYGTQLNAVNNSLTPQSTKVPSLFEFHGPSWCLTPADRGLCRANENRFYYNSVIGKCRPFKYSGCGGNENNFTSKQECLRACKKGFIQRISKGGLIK
Experimental: (§1) Human TFPI was immobilized on CM4 or CM5 chip using amine coupling kit based on manufacturer's instruction. Anti-TFPI pro-drug antibodies or parental anti-TFPI antibody were flowed through the system with 10 μg/mL antibody with or without 15 μg/mL human serum albumin (HSA). The binding level was measure at 2 seconds after completion of each injection. In kinetics assay, antibodies with a series of concentrations were injected, followed by 30-minute dissociation time. The dissociation and association rate of the antibodies were modeled using BiaEvaluation software.

[2] = target: T1, human tissue factor pathway inhibitor …; assay: SPR (Biacore) kinetics, human TFPI immobilised
Experimental: as §1

[3] = target: T1, human tissue factor pathway inhibitor …; assay: SPR (Biacore) kinetics, human TFPI immobilised; antibody with HSA
Experimental: as §1

[4] = target: T1, human tissue factor pathway inhibitor …; assay: SPR (Biacore), TFPI; with monkey serum albumin against antibody alone
[5] = target: T1, human tissue factor pathway inhibitor …; assay: SPR (Biacore) kinetics, human TFPI immobilised; antibody with HSA; reference gA200
Experimental: as §1

[6] = target: T1, human tissue factor pathway inhibitor …; assay: SPR (Biacore), TFPI; with HSA against antibody alone
[7] = target: T1, human tissue factor pathway inhibitor …; assay: SPR (Biacore), TFPI; antibody alone (reference)

| Binder | Affinity decrease (fold) [1] [fold] | Kd [2] [nM] | Kd [3] [nM] | Affinity decrease (fold) [4] [fold] | Affinity decrease (fold) [5] [fold] | Affinity decrease (fold) [6] [fold] | Affinity decrease (fold) [7] [fold] |
| --- | --- | --- | --- | --- | --- | --- | --- |
| 3E10scFv-gA200 (bispecific antibody, human IgG2, lambda, scFv against TF fused on the N-terminus of the heavy chain of anti-TFPI IgG gA200; made in CHO cells; also called 3E10sc-gA200) heavy: QVQLVESGGTLVQPGGSLRLSCAASGFSFTDAWMSWVRQAPGKELEWVSSISGSGGSTYYAGSVKGRFTISRDNSKNTLYLQMNSLRAEDTAVYYCARVLSLTDYYWYGMDVWGQGTLVTVGGGGSGGGGSGGGGSNFMLTQPHSVSASPGKTVTISCTRSSGSVASYYVQWYQQRPGSSPTTVIYEDNHRPSGVPDRFSGSIDTSSNSASLTISGLKTEDEADYYCQSYDSNNLVVFGGGTKLTVLGEGRTATSGGGLVQPGGSLRLSCAASGFTFSSYGMDWVRQAPGKGLEWVSSIRGSRGSTYYADSVKGRFTISRDNSKNTLYLQMNSLRAEDTAVYYCARLYRYWFDYWGQGTLVTVSSASTKGPSVFPLAPCSRSTSESTAALGCLVKDYFPEPVTVSWNSGALTSGVHTFPAVLQSSGLYSLSSVVTVPSSNFGTQTYTCNVDHKPSNTKVDKTVERKCCVECPPCPAPPVAGPSVFLFPPKPKDTLMISRTPEVTCVVVDVSHEDPEVQFNWYVDGVEVHNAKTKPREEQFNSTFRVVSVLTVVHQDWLNGKEYKCKVSNKGLPAPIEKTISKTKGQPREPQVYTLPPSREEMTKNQVSLTCLVKGFYPSDIAVEWESNGQPENNYKTTPPMLDSDGSFFLYSKLTVDKSRWQQGNVFSCSVMHEALHNHYTQKSLSLSPG light: SYELTQPPSVSVSPGQTARITCSGDNLPKYYAHWYQQKPGQAPVVVIFYDVNRPSGIPERFSGSNSGNTATLTISGTQAMDEADYYCQAWWSSTPVFGGGTKLTVLGQPKAAPSVTLFPPSSEELQANKATLVCLISDFYPGAVTVAWKADSSPVKAGVETTTPSKQSNNKYAASSYLSLTPEQWKSHRSYSCQVTHEGSTVEKTVAPTECS | 29.7 | 0.519 |  |  |  |  |  |
| Ter119scFv-gA200 (bispecific antibody, human IgG2, lambda, scFv against RBC fused on the N-terminus of the heavy chain of anti-TFPI IgG gA200; made in CHO cells; also called Ter119sc-gA200; T119sc-gA200) heavy: QVKLQESGGGLVQPGGSLKLSCVASGFTFRDHWMNWVRQAPGKTMEWIGDIRPDGSDTNYAPSVRNRFTISRDNARSILYLQMSNMRSDYTATYYCVRDSPTRAGLMDAWGQGASVTVLTGGGGSGGGGSGGGGSDIQMIQSPSVLSASVGDRVTLNCKASQNINKYLNWYQQKLGEAPKVLIYNTNNLQTGIPSRFSGSGSGTDFTLTISSLQPEDFATYFCFQHYTWPTFGGGTKLELKEGRTATSGGGLVQPGGSLRLSCAASGFTFSSYGMDWVRQAPGKGLEWVSSIRGSRGSTYYADSVKGRFTISRDNSKNTLYLQMNSLRAEDTAVYYCARLYRYWFDYWGQGTLVTVSSASTKGPSVFPLAPCSRSTSESTAALGCLVKDYFPEPVTVSWNSGALTSGVHTFPAVLQSSGLYSLSSVVTVPSSNFGTQTYTCNVDHKPSNTKVDKTVERKCCVECPPCPAPPVAGPSVFLFPPKPKDTLMISRTPEVTCVVVDVSHEDPEVQFNWYVDGVEVHNAKTKPREEQFNSTFRVVSVLTVVHQDWLNGKEYKCKVSNKGLPAPIEKTISKTKGQPREPQVYTLPPSREEMTKNQVSLTCLVKGFYPSDIAVEWESNGQPENNYKTTPPMLDSDGSFFLYSKLTVDKSRWQQGNVFSCSVMHEALHNHYTQKSLSLSPG light: SYELTQPPSVSVSPGQTARITCSGDNLPKYYAHWYQQKPGQAPVVVIFYDVNRPSGIPERFSGSNSGNTATLTISGTQAMDEADYYCQAWWSSTPVFGGGTKLTVLGQPKAAPSVTLFPPSSEELQANKATLVCLISDFYPGAVTVAWKADSSPVKAGVETTTPSKQSNNKYAASSYLSLTPEQWKSHRSYSCQVTHEGSTVEKTVAPTECS | 14.7 | 0.256 |  |  |  |  |  |
| gA200 (antibody, human IgG2, lambda, V domains shown, Fc N-glycan, Human anti-TFPI IgG from human antibody libraries, optimised; no masking domain; also called parental anti-TFPI antibody gA200; unmodified anti-TFPI antibody) VH: EVQLVESGGGLVQPGGSLRLSCAASGFTFSSYGMDWVRQAPGKGLEWVSSIRGSRGSTYYADSVKGRFTISRDNSKNTLYLQMNSLRAEDTAVYYCARLYRYWFDYWGQGTLVTVSS VL: SYELTQPPSVSVSPGQTARITCSGDNLPKYYAHWYQQKPGQAPVVVIFYDVNRPSGIPERFSGSNSGNTATLTISGTQAMDEADYYCQAWWSSTPVFGGGTKLTVLG | 1 | 0.0175 | 0.0181 | 0.5 | 1.04 | 0.7 | 1 |
